Patent publication US10258642B2, “Dextran sulfate for use in mobilization of cells” (TX MEDIC AB, priority 2013, dated 2019)

Key:
CFU-GM = settings: colonies with >50 cells; G-CSF 10 μg/kg daily for five days and/or dextran sulfate 15 mg/kg once on day 5 (Han 1998); cited from earlier work
peripheral blood cells = assay: combination with G-CSF, hematological analysis; assay type: in vivo, mice; settings: G-CSF 2×2.5 μg/day s.c. for 2 days
Experimental: G-CSF (NEUPOGEN®, Amgen, Holland) was supplied as sterile isotonic aqueous solution at 0.3 mg/mL and was diluted in normal saline to a concentration of 50 μg/mL. G-CSF was administered at a dose of 2.5 μg as a single subcutaneous injection, morning and evening Day -2 and Day -1. Dextran sulfate of different average molecular weights were used:
Standard treatment of patients prior to apheresis is based on daily injections of G-CSF for up to one week. Clinically dextran sulfate could be used in combination with G-CSF. In a study in mice 2.5 μg/animal of G-CSF was administered twice daily (8 hrs apart) for 2 days (Broxmeyer 1999).

B1: G-CSF: granulocyte-colony stimulation factor (NEUPOGEN, Amgen) (protein, chains of the INN, looked up)
chain: MTPLGPASSLPQSFLLKCLEQVRKIQGDGAALQEKLCATYKLCHPEELVLLGHSLGIPWAPLSSCPSQALQLAGCLSQLHSGLFLYQGLLQALEGISPELGPTLDTLQLDVADFATTIWQQMEELGMAPALQPTQGAMPAFASAFQRRAGGVLVASHLQSFLEVSYRVLRHLAQP
For B1, the CFU-GM level (CFU-GM) is listed as 17.1±1.9 colonies and the “number of WBC compared to normal” value (peripheral blood cells) is listed as “increased the number of WBC”.
